Results taken from paper PMC5314769, “Structural insights into dynamics of RecU–HJ complex formation elucidates key role of NTR and stalk region toward formation of reactive state” (Nucleic Acids Research, 2016).

T1: RecU D88N D88N (Bacillus subtilis) (UniProt P39792)
T1 sequence: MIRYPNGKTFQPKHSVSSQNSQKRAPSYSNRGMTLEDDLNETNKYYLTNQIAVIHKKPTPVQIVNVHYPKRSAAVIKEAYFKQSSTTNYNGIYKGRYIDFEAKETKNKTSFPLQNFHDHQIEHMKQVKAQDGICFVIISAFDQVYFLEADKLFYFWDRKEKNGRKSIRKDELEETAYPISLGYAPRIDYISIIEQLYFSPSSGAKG

T2: RecU D88N (Bacillus subtilis, UniProt P39792 1-206, D88N)
T2 sequence: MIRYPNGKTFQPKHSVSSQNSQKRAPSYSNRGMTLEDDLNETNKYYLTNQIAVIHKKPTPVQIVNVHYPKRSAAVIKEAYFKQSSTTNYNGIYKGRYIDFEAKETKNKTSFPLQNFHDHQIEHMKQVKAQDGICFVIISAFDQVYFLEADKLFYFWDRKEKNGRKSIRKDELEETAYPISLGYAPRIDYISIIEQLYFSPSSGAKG


Key:
[1] = target: T1, RecU D88N D88N (Bacillus subtilis); assay: thermofluor; conditions: 1:1 molar ratio; Thermofluor: 100 mM MES pH 6.5, 5 ug RecU D88N per well, DNA 1:1 molar, Sypro orange, 25-100 C in 1 C steps; crystals: 0.1 M BICINE pH 9, 10% PEG 6000, 17 C …
[2] = target: the molecule itself; assay: crystal structure; RecU D88N mixed with 12 bp palindromic DNA at 1:1.25 molar ratio; crystals in 0.1 M BICINE pH 9, 10% PEG 6000, 17°C; 3.2 Å, space group R32, four RecU chains in the asymmetric unit
RecU D88N = target: T2, RecU D88N; assay: X-ray crystallography (3.2 A); 0.1 M BICINE pH 9, 10% PEG 6000; Thermofluor: 100 mM MES pH 6.5, 5 ug RecU D88N per well, DNA 1:1 molar, Sypro orange, 25-100 C in 1 C steps; crystals: 0.1 M BICINE pH 9, 10% PEG 6000, 17 C, protein:DNA 1:1.25; conditions: protein: recombinant; chain copies: 2; blunt; self-complementary, 2 strand copies

Row | Molecule | binding signal [1] | further results
1 | HJ 10 bp | 6.7 delta Tm, C | 
2 | HJ 12 bp (HJ24?) | 10.1 delta Tm, C | 
3 | HJ 11 bp | 8.2 delta Tm, C | 
4 | RecU D88N, catalytically inactive mutant of the Holliday junction resolving enzyme RecU from Bacillus subtilis (enzyme, UniProt P39792 1-206, looked up, the N-terminal region (residues 1-33), the stalk (56-89) and the cap (34-55 and 90-199) are seen in the structure) MIRYPNGKTFQPKHSVSSQNSQKRAPSYSNRGMTLEDDLNETNKYYLTNQIAVIHKKPTPVQIVNVHYPKRSAAVIKEAYFKQSSTTNYNGIYKGRYIDFEAKETKNKTSFPLQNFHDHQIEHMKQVKAQDGICFVIISAFDQVYFLEADKLFYFWDRKEKNGRKSIRKDELEETAYPISLGYAPRIDYISIIEQLYFSPSSGAKG |  | binding result [2]: binds
5 | 12 bp palindromic duplex (dsDNA) DNA 1: ACGCAATTGCGT DNA 2: ACGCAATTGCGT |  | binding result (RecU D88N): binds
